Measured values as given in US11524977 (JIANGSU UNIVERSITY, dated 2022).

Target: Angiotensin converting enzyme (ACE EC 3.4.15.1)
Test: cell-based or functional assay

Binder	IC50 of ACE inhibitory activity [µg/mL]
LQPP [Leu-Gln-Pro-Pro (LQPP)]	14.2
APY [Ala-Pro-Tyr (APY)]	19.1
LSLP [Leu-Ser-Leu-Pro (LSLP)]	71.1
